One assay addresses β-arrestin2 (βarr2). The assay is described as follows: β-arrestin2 recruitment dose-response (method not named for this panel; panel d of the same figure is NanoBiT). The note with it: agonist CCL15M (CCL15 27-92) at 1e-6 M (highest dose); parent: est. 100; read off a plot. In general terms: Recruitment of arrestin is a read-out of receptor activation apart from second messengers.

For assay [1], the target named is T1, wild-type full-length human CCR1 fused with LgBiT at the C terminus (cryo-EM construct) (human, UniProt P32246 1-355).
T1 construct: chemokine receptor CCR1, human, wild type, full length; Expressed with a chemokine (CCL15 (26–92), CCL15 (27–92), or CCL3 (4–69) for the apo complex) fused to its N terminus by a GS linker with a TEV site; the linker was cut with TEV protease and 2*MBP removed with 3C protease; Also used here as the target of the functional rows on wild-type CCR1 in cells, whose construct for the G protein …
T1 sequence (looked up): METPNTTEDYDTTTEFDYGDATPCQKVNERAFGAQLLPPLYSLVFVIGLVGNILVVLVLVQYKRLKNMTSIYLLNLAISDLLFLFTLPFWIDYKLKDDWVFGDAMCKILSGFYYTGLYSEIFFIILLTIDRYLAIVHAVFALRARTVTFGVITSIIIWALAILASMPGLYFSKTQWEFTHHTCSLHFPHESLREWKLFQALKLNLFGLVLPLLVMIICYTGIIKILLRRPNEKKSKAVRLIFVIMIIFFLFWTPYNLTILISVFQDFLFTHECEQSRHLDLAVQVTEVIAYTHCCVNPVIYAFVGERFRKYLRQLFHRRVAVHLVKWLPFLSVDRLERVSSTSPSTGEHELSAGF
The assay is described as follows: cryo-EM structure; CCL15-bound CCR1–Gi complexes (CCL15^L, CCL15^M); chemokine expressed fused to CCR1 and cut with TEV; co-expressed with Gi in SF9; NanoBiT tethering of CCR1-LgBiT and Gβ1-SmBiT; scFv16 added; 20 mM HEPES pH 7.5, 100 mM NaCl, LMNG/CHS/GDN. Particulars: both partners purified.

The text below walks through data of paper PMC8885419, “Identification and mechanism of G protein-biased ligands for chemokine receptor CCR1” (Nature Chemical Biology, 2021).

Turning to “CCR1 (1–327 aa) with LgBiT at the C terminal (from UniProt P32246) Y113F; Y255F”, the percent of parent (% wild-type/CCL15M max) in the assay with β-arrestin2 (βarr2) was 85.
Same read-out and setting: to “CCR1 (1–327 aa) with LgBiT at the C terminal (from UniProt P32246) T86A; W90A” belongs 81.

B1: CCL15 (26–92) (ligand, human, UniProt Q16663 47-113, looked up)
chain: FHFAADCCTSYISQSIPCSLMKSYFETSSECSKPGVIFLTKKGRQVCAKPSGPGVQDCMKKLKPYSI
notes: chemokine CCL15, human, residues 26–92 of CCL15 (1–92), first residue F26; also called CCL15^L; long form CCL15; source: SF9 insect cells, expressed fused to the N terminus of CCR1, cut with TEV protease, purified in the complex
As to B1, the binding result in assay [1] is “binds”.

B2: CCL15 (27–92) (ligand, human, UniProt Q16663 48-113, looked up)
chain: HFAADCCTSYISQSIPCSLMKSYFETSSECSKPGVIFLTKKGRQVCAKPSGPGVQDCMKKLKPYSI
notes: chemokine CCL15, human, residues 27–92 of CCL15 (1–92); In the cryo-EM sample residues of the GS/TEV linker may remain at the C terminus; also called CCL15^M; medium form CCL15; source: SF9 insect cells, expressed fused to the N terminus of CCR1, cut with TEV protease, purified in the complex
Take B2: the binding result in assay [1] was “binds”.
